Results published in publication PMC9213791, “Small Molecule RPI-194 Stabilizes Activated Troponin to Increase the Calcium Sensitivity of Striated Muscle Contraction” (Frontiers in Physiology, 2022).

Experiments:
[1] = molecular target: T1, recombinant human aCys-cNTnC (C35S, C84S double mutant), N-terminal regulatory domain of cardiac troponin C (human); assay: NMR titration; ssTnI peptide (10 mM stock in d6-DMSO) titrated to 0.5-30 equivalents into 15N-labeled cNTnC (115 µM); 100 mM KCl, 10 mM imidazole, pH ~6.7, 30°C; 2D 1H,15N HSQC; KD from 2D lineshape analysis (TITAN), two-state model; no RPI-194; settings: both partners purified
T1 construct: human cardiac/slow skeletal troponin C, N-terminal regulatory domain (cNTnC); Uniformly 15N-labeled for NMR; also called cNTnC domain; isolated cNTnC domain; source: E. coli, expressed and purified as previously described (Cai et al., 2016), lyophilized; 15N-labeled

[2] = molecular target: T1, recombinant human aCys-cNTnC (C35S, …); assay: NMR titration; ssTnI peptide titrated to 0.1-3 equivalents into 15N-labeled cNTnC·RPI-194 complex (115 µM, 1:1 protein and drug); 100 mM KCl, 10 mM imidazole, pH ~6.7, 30°C; 2D 1H,15N HSQC; KD from TITAN, two-state model; settings: both partners purified

Kd [1]: 652 µM | Kd [2]: 22 µM
B1: slow skeletal troponin I switch peptide (ssTnI) (peptide)
chain: RVSADAMLRALLGSKHK
modifications: synthetic peptide; termini not stated. Limits not printed: taken as the ssTnI equivalent (offset -30) of the conventional cTnI switch peptide 147-163, because the paper compares it with the …
